Among the data in publication PMC7490372, “Structural bases of IMiD selectivity that emerges by 5-hydroxythalidomide” (Nature Communications, 2020) are response (Relative AS signal) values, retold here.

The chains are these.
B1: FLAG-GST-SALL4 (wild type) [human] / biotinylated CRBN (wild type) [modified: biotin (added by BirA during cell-free synthesis); biotin (added by BirA during cell-free synthesis)] [human] (parent)
chain 1: MSRRKQAKPQHINSEEDQGEQQPQQQTPEFADAAPAAPAAGELGAPVNHPGNDEVASEDEATVKRLRREETHVCEKCCAEFFSISEFLEHKKNCTKNPPVLIMNDSEGPVPSEDFSGAVLSHQPTSPGSKDCHRENGGSSEDMKEKPDAESVVYLKTETALPPTPQDISYLAKGKVANTNVTLQALRGTKVAVNQRSADALPAPVPGANSIPWVLEQILCLQQQQLQQIQLTEQIRIQVNMWASHALHSSGAGADTLKTLGSHMSQQVSAAVALLSQKAGSQGLSLDALKQAKLPHANIPSATSSLSPGLAPFTLKPDGTRVLPNVMSRLPSALLPQAPGSVLFQSPFSTVALDTSKKGKGKPPNISAVDVKPKDEAALYKHKCKYCSKVFGTDSSLQIHLRSHTGERPFVCSVCGHRFTTKGNLKVHFHRHPQVKANPQLFAEFQDKVAAGNGIPYALSVPDPIDEPSLSLDSKPVLVTTSVGLPQNLSSGTNPKDLTGGSLPGDLQPGPSPESEGGPTLPGVGPNYNSPRAGGFQGSGTPEPGSETLKLQQLVENIDKATTDPNECLICHRVLSCQSSLKMHYRTHTGERPFQCKICGRAFSTKGNLKTHLGVHRTNTSIKTQHSCPICQKKFTNAVMLQQHIRMHMGGQIPNTPLPENPCDFTGSEPMTVGENGSTGAICHDDVIESIDVEEVSSQEAPSSSSKVPTPLPSIHSASPTLGFAMMASLDAPGKVGPAPFNLQRQGSRENGSVESDGLTNDSSSLMGDQEYQSRSPDILETTSFQALSPANSQAESIKSKSPDAGSKAESSENSRTEMEGRSSLPSTFIRAPPTYVKVEVPGTFVGPSTLSPGMTPLLAAQPRRQAKQHGCTRCGKNFSSASALQIHERTHTGEKPFVCNICGRAFTTKGNLKVHYMTHGANNNSARRGRKLAIENTMALLGTDGKRVSEIFPKEILAPSVNVDPVVWNQYTSMLNGGLAVKTNEISVIQSGGVPTLPVSLGATSVVNNATVSKMDGSQSGISADVEKPSATDGVPKHQFPHFLEENKIAVS
chain 2: MAGEGDQQDAAHNMGNHLPLLPAESEEEDEMEVEDQDSKEAKKPNIINFDTSLPTSHTYLGADMEEFHGRTLHDDDSCQVIPVLPQVMMILIPGQTLPLQLFHPQEVSMVRNLIQKDRTFAVLAYSNVQEREAQFGTTAEIYAYREEQDFGIEIVKVKAIGRQRFKVLELRTQSDGIQQAKVQILPECVLPSTMSAVQLESLNKCQIFPSKPVSREDQCSYKWWQKYQKRKFHCANLTSWPRWLYSLYDAETLMDRIKKQLREWDENLKDDSLPSNPIDFSYRVAACLPIDDVLRIQLLKIGSAIQRLRCELDIMNKCTSLCCKQCQETEITTKNEIFSLSLCGPMAAYVNPHGYVHETLTVYKACNLNLIGRPSTEHSWFPGYAWTVAQCKICASHIGWKFTATKKDMSPQKFWGLTRSALLPTIPDTEDEISPDKVILCL
B2: FLAG-GST-IKZF1 (wild type) [not stated] / biotinylated CRBN (wild type) [modified: biotin (added by BirA during cell-free synthesis); biotin (added by BirA during cell-free synthesis)] [human] (parent)
chain 1: MDADEGQDMSQVSGKESPPVSDTPDEGDEPMPIPEDLSTTSGGQQSSKSDRVVASNVKVETQSDEENGRACEMNGEECAEDLRMLDASGEKMNGSHRDQGSSALSGVGGIRLPNGKLKCDICGIICIGPNVLMVHKRSHTGERPFQCNQCGASFTQKGNLLRHIKLHSGEKPFKCHLCNYACRRRDALTGHLRTHSVGKPHKCGYCGRSYKQRSSLEEHKERCHNYLESMGLPGTLYPVIKEETNHSEMAEDLCKIGSERSLVLDRLASNVAKRKSSMPQKFLGDKGLSDTPYDSSASYEKENEMMKSHVMDQAINNAINYLGAESLRPLVQTPPGGSEVVPVISPMYQLHKPLAEGTPRSNHSAQDSAVENLLLLSKAKLVPSEREASPSNSCQDSTDTESNNEEQRSGLIYLTNHIAPHARNGLSLKEEHRAYDLLRAASENSQDALRVVSTSGEQMKVYKCEHCRVLFLDHVMYTIHMGCHGFRDPFECNMCGYHSQDRYEFSSHITRGEHRFHMS
chain 2: B1 chain 2

Variants of B1 are the subject of one assay. In words: AlphaScreen (AS-based interaction assay). The conditions noted are these: with biotinylated CRBN (wild type) [modified: biotin (added by BirA during cell-free synthesis), (S)-5HT, last (highest) point of the titration, Log[(S)-5HT (µM)] about 2.3, signal relative to DMSO = 1, read off a plot. A general note: In Alpha technology, singlet oxygen from a donor bead excites a nearby acceptor bead.
For chain 1 V411Q, the response (Relative AS signal) was 4.5.

On to chain 1 V411Q R418S, for which the response (Relative AS signal) was 4.5.

The assay is the same for the next values; noted with them: with biotinylated CRBN (wild type) [modified: biotin (added by BirA during cell-free synthesis), (S)-thalidomide, last (highest) point of the titration, Log[(S)-Thal (µM)] = 2, signal relative to DMSO = 1, read off a plot.
Turning to chain 1 V411Q, the response (Relative AS signal) came to 100.

For the variant chain 1 V411R, the response (Relative AS signal) stood at 14.

As to chain 1 V411I, the response (Relative AS signal) is 75.

With chain 1 V411H, the response (Relative AS signal) was 20.

For the variant chain 1 V411K, the response (Relative AS signal) was 7.

Staying with this assay, now noted: with biotinylated CRBN (wild type) [modified: biotin (added by BirA during cell-free synthesis), (S)-thalidomide, last (highest) point of the titration, Log[(S)-Thal (µM)] about 2.3, signal relative to DMSO = 1, read off a plot.
In the case of chain 1 V411Q, the response (Relative AS signal) came out at 66.

Consider chain 1 V411Q R418S, for which the response (Relative AS signal) is 62.

The same assay, now with this note: with biotinylated CRBN (wild type) [modified: biotin (added by BirA during cell-free synthesis), pomalidomide, last (highest) point of the titration, Log[Pom (µM)] = 2, signal relative to DMSO = 1, read off a plot.
With chain 1 V411Q, the response (Relative AS signal) amounted to 100.

In the case of chain 1 V411R, the response (Relative AS signal) was found to be 37.

Turning to chain 1 V411I, the response (Relative AS signal) turned out to be 78.

Consider chain 1 V411H, for which the response (Relative AS signal) is 22.

For the variant chain 1 V411K, the response (Relative AS signal) came out at 8.

Turning to chain 1 V411A, the response (Relative AS signal) was determined as 52.

The same assay, now with this note: with biotinylated CRBN (wild type) [modified: biotin (added by BirA during cell-free synthesis), 5HP, last (highest) point of the titration, Log[5HP (µM)] = 2, signal relative to DMSO = 1, read off a plot.
As for chain 1 V411I, the response (Relative AS signal) was determined as 51.

Turning to chain 1 V411L, the response (Relative AS signal) was 14.

Take chain 1 V411T: the response (Relative AS signal) is 43.

In the case of chain 1 V411A, the response (Relative AS signal) worked out at 26.

The assay is the same for the next values; noted with them: with biotinylated CRBN (wild type) [modified: biotin (added by BirA during cell-free synthesis), (S)-5HT, last (highest) point of the titration, Log[(S)-5HT (µM)] = 2, signal relative to DMSO = 1, read off a plot.
As to chain 1 V411I, the response (Relative AS signal) amounted to 63.

With chain 1 V411L, the response (Relative AS signal) worked out at 14.

Take chain 1 V411T: the response (Relative AS signal) is 47.

On to chain 1 V411A, for which the response (Relative AS signal) is 29.

Variants of B2 are the subject of another assay. Briefly: AlphaScreen (AS-based interaction assay). The conditions noted are these: with biotinylated CRBN (wild type) [modified: biotin (added by BirA during cell-free synthesis), (S)-5HT, last (highest) point of the titration, Log[(S)-5HT (µM)] about 2.3, signal relative to DMSO = 1, read off a plot.
Take chain 1 Q146V: the response (Relative AS signal) is 25.

For chain 1 Q146V S153R, the response (Relative AS signal) turned out to be 26.

The same assay, now with this note: with biotinylated CRBN (wild type) [modified: biotin (added by BirA during cell-free synthesis), (S)-thalidomide, last (highest) point of the titration, Log[(S)-Thal (µM)] about 2.3, signal relative to DMSO = 1, read off a plot.
Turning to chain 1 Q146V, the response (Relative AS signal) amounted to 28.

For chain 1 Q146V S153R, the response (Relative AS signal) was found to be 14.
